B1: commercial fetuin: commercial fetuin purchased from Sigma, prepared by the Pederson Method (protein, UniProt P12763 19-359, looked up)
Alpha-2-HS-glycoprotein: IPLDPVAGYKEPACDDPDTEQAALAAVDYINKHLPRGYKHTLNQIDSVKVWPRRPTGEVYDIEIDTLETTCHVLDPTPLANCSVRQQTQHAVEGDCDIHVLKQDGQFSVLFTKCDSSPDSAEDVRKLCPDCPLLAPLNDSRVVHAVEVALATFNAESNGSYLQLVEISRAQFVPLPVSVSVEFAVAATDCIAKEVVDPTKCNLLAEKQYGFCKGSVIQKALGGEDVRVTCTLFQTQPVIPQPQPDGAEAEAPSAVPDAAGPTPSAAGPPVASVVVGPSVVAVPLPLHRAHYDLRHTFSGVASVESSSGEAFHVGKTPIVGQPSIPGGPVRLCPGRIRYFKI
B2: mature fetuin: fetuin isolated from mature bovine serum (protein, UniProt P12763 19-359, looked up)
Alpha-2-HS-glycoprotein: B1 Alpha-2-HS-glycoprotein
B3: human fetuin: human fetuin (Alpha 2-HS glycoprotein) isolated from adult human serum (protein, UniProt P02765 19-300; P02765 341-367, looked up)
Alpha-2-HS-glycoprotein chain … 1: APHGPGLIYRQPNCDDPETEEAALVAIDYINQNLPWGYKHTLNQIDEVKVWPQQPSGELFEIEIDTLETTCHVLDPTPVARCSVRQLKEHAVEGDCDFQLLKLDGKFSVVYAKCDSSPDSAEDVRKVCQDCPLLAPLNDTRVVHAAKAALAAFNAQNNGSNFQLEEISRAQLVPLPPSTYVEFTVSGTDCVAKEATEAAKCNLLAEKQYGFCKATLSEKLGGAEVAVTCMVFQTQPVSSQPQPEGANEAVPTPVVDPDAPPSPPLGAPGLPPAGSPPDSHVL
Alpha-2-HS-glycoprotein chain … 2: TVVQPSVGAAAGPVVPPCPGRIRHFKV

Columns and labels:
all the cell lines = experiment: Zn or Ba alone on the cell lines; assay type: cell-based; conditions: all concentrations tested (up to 66 uM)
Description: (§1) Fetuin purified by modified Spiro method was further incubated with Zinc Acetate or Barium Acetate (0.25M) at room temperature for 1 hr. Free ions were removed by repetitive concentration against 20 volumes of PBS three times. Fetuin, Zn-charged fetuin and Ba-charged fetuin (5 uM) and PBS were then separately incubated with LNCaP cells for 4 hr. Percent of cells under apoptosis was determined by Hoechst staining and confirmed by MTS assay. Each data represents the average of two assays. Zn-charged or Ba-charged fetuin may contain free Zn or Ba (about 30 uM). However, all the cell lines are not affected by Zn or Ba alone at all concentrations tested (up to 66 uM).

LNCaP cells = experiment: Fetuin-induced apoptosis, Hoechst staining confirmed by MTS assay; assay type: cell-based, Human; conditions: for apoptosis-inducing activity in LNCaP cells: fetal vs mature fetuins at the same concentration
Description: The purified fetuin was tested on various cancer cell lines. […] The DNA condensation and breakage of nuclei which are the characteristics for apoptosis were observed by staining the cell with Hoechst dye at 0.1 ug/ml.
as §1
Various concentrations of Zn-charged fetuin prepared as described were incubated with cell lines for 6 hr. Percent of cell under apoptosis was determined by Hoechst staining and confirmed by MTS assay. The concentration of Zn-charged fetuin for the induction of 50% of cells under apoptosis (LD50) was determined. Each data represents the average of three assays.

Row | Molecule | effect of free ion alone on the cell lines (all the cell lines) | apoptosis-inducing activity in LNCaP cells (LNCaP cells) | other results
1 | CC(=O)[O-].CC(=O)[O-].[Zn+2] [Zn] | not affected |  | 
2 | CC(=O)[O-].CC(=O)[O-].[Ba+2] [Ba] | not affected |  | 
3 | B1 |  |  | apoptotic activity by method of preparation (LNCaP cells; Pederson Method (Sigma) vs modified Spiro method): did not show apoptotic activity
4 | B2 |  | no activity inducing apoptosis | 
5 | B3 |  | fails to induce apoptosis | 

Source: patent US20030044400A1, “Composition and method for treating cells” (priority 2001, published 2003)
